Assay results: patent US11248243B2, “Process for the biological production of methacrylic acid and derivatives thereof” (MITSUBISHI CHEMICAL UK LIMITED, priority 2015, dated 2022)

Experiments:
[1] = substrate: C=C(C)C(=O)SCCNC(=O)CCNC(=O)[C@H](O)C(C)(C)COP(=O)(O)OP(=O)(O)OC[C@H]1O[C@@H](n2cnc3c(N)ncnc32)[C@H](O)[C@@H]1OP(=O)(O)O; assay: Kinetic characterisation of purified carboxy-terminal hexahistidine tagged 4HBT (thioester hydrolysis, DTNB); type: biochemical; conditions: other: substrate of purified CtHis-4HBT (0.075 mg/ml for methacrylyl-CoA, 1 mg/ml for isobutyryl-CoA), DTNB 0.5 mM, Lineweaver-Burke plot; 18.0 °C
Description: (§1) Pure carboxy-terminal His-tagged 4HBT enzyme was then prepared by first growing cultures of E. coli BL21 (DE3) pLysS pET20b(+)::CtHis-4HBT and inducing expression in the exact same manner as was performed for E. coli BL21 (DE3) pLysS pET20b(+)::4HBT. […] Cells were harvested by splitting the cell culture into three centrifuge tubes and centrifuging at 5000 g for 20 min at 4° C. Cell pellets were not washed though, and were instead directly stored at −80° C. A cell free extract of carboxy-terminal hexahistidine tagged 4HBT was prepared by re-suspending one of the E. coli BL21 (DE3) pLysS pET20b(+)::CtHis-4HBT cell pellets in binding buffer (6 ml) for a Nickel-sepharose FPLC column. Binding buffer consisted of NaH2PO4 (10 mM), Na2HPO4 (10 mM), NaCl (500 mM), imidazole (30 mM) and was adjusted to pH 7.4 with HCl. Benzonase® nuclease (0.6 μl) was added to the re-suspended cells before they were lysed in the Constant Systems One Shot cell disrupter. The cell lysate was then clarified by centrifugation at 18,000 g for 15 min at 4° C., followed by centrifugation of the supernatant at 57,750 g for 60 min at 4° C. This supernatant was then loaded onto a GE Healthcare HisTrap™ FF Crude column (1 ml) that was equilibrated with binding buffer. […] Protein elution was monitored at 280 nm and fractions were checked for the presence and purity of carboxy-terminal His-tagged 4HBT by SDS-PAGE. […] The latter dilution in potassium phosphate assay buffer and re-concentration was performed once more and the concentration of CtHIS-4HBT protein was determined by UV280 absorbance in a NanoDrop ND1000 spectrophotometer, using a molar extinction coefficient of 20970M^−1·cm^−1 and a molecular weight of 17516.5 mg·mmol^−1 for the carboxy-terminal His-tagged 4HBT enzyme. The values for the molar extinction coefficient and molecular weight were determined using the Expasy ProtParam tool, using the amino acid translation of the gene sequence encoding the carboxy-terminal his tagged 4HBT enzyme (SEQ. ID 5) in the pET20b(+)::CtHis-4HBT plasmid. […]
(§2) Methacrylyl-CoA hydrolysis reactions (200 μl) were performed in Nunc 96 well plates using purified CtHis-4HBT protein (0.075 mg·ml^−1) and DTNB (0.5 mM) to monitor the reaction. Initial rates were determined for methacrylyl-CoA starting concentrations of 0.375 mM, 0.3 mM, 0.225 mM, 0.15 mM and 0.075 mM. […]
(§3) Isobutyryl-CoA hydrolysis reactions (200 μl) were also performed in Nunc 96 well plates, using purified CtHIS-4HBT protein (1 mg·ml^−1) and DTNB (0.5 mM) to monitor the reaction. Initial rates were determined for isobutyryl-CoA starting concentrations of 0.5 mM, 0.4 mM, 0.3 mM, 0.2 mM and 0.1 mM. […]

[2] = substrate: CC(C)C(=O)SCCNC(=O)CCNC(=O)[C@H](O)C(C)(C)COP(=O)(O)OP(=O)(O)OC[C@H]1O[C@@H](n2cnc3c(N)ncnc32)[C@H](O)[C@@H]1OP(=O)(O)O; assay: as above; type: biochemical; conditions: other: substrate of purified CtHis-4HBT (0.075 mg/ml for methacrylyl-CoA, 1 mg/ml for isobutyryl-CoA), DTNB 0.5 mM, Lineweaver-Burke plot; 18.0 °C
Description: as §1, §2, §3

B1: 4-hydroxybenzoyl-CoA thioesterase (4HBT) (Arthrobacter sp.) (protein)
chain: MHRTSNGSHATGGNLPDVASHYPVAYEQTLDGTVGFVIDEMTPERATASVEVTDTLRQRWGLVHGGAYCALAEMLATEATVAVVHEKGMMAVGQSNHTSFFRPVKEGHVRAEAVRIHAGSTTWFWDVSLRDDAGRLCAVSSMSIAVRPRRDGLEHHHHHH
notes: made in house; host or cells: E. coli BL21 (DE3) pLysS pET20b(+)::CtHis-4HBT
Protein B1 has a Km [1] of 1600 µM, a Vmax [1] of 470 nmols·mg^−1·min^−1 and a Km [2] of 3000 µM. It also gave a Vmax [2] of 16.7 nmols·mg^−1·min^−1.
